{"source": "patent US20240368285A1", "about": "(HEFEI TG IMMUNOPHARMA, published 2024)", "binders": {"B1": {"name": "affinity maturation antibody h5A1002 (antibody, V domains shown)", "VH": "QVQLQESGPGLVKPSETLSLTCTVSGFSLTTYGGHWIRQPPGKGLEWIGMIWTDGWTDYNAAFISRVTISVDTSKNQFSLKLSSVTAADTAVYYCARKGHGYYYAMDYWGQGTLVTVSS", "VL": "EIVLTQSPGTLSLSPGERATLSCTASSSVSSSYLHWYQQKPGQAPRLLIYSTSNLISGIPDRFSGSGSGTDFTLTISRLEPEDFAVYYCHQYHRSPFTFGQGTKLEIKR", "notes": "Human IgG1, kappa; also called h5A1002-hIgG1"}}, "key": {"[1]": {"target": "T1, MICA on human tumor cells (A-375, A549, HCT-15, MDA-MB-231) (human, UniProt Q29983 24-383)", "T1 construct": "whole, on cells", "T1 sequence (looked up)": "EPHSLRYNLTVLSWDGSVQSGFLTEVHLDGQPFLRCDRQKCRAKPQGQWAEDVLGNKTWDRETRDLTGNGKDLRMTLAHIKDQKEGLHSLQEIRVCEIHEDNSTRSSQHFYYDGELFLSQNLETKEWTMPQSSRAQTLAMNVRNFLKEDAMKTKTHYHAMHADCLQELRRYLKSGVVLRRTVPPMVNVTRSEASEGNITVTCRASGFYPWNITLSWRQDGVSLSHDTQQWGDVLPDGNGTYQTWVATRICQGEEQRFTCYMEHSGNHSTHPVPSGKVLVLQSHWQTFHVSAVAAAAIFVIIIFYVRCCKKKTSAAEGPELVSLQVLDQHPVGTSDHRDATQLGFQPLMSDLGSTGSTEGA", "experiment": "flow cytometry on MDA-MB-231 cells, Alexa-647 goat anti-human secondary, % binding ratio", "method": "(§1) (2) Tumor cells were diluted to a density of 2×10⁶/mL with PBS and added into a 1.5 ml EP tube in a volume of 100 l/tube. 10 l/tube of goat serum was added into the EP tube; and blocking was conducted at 4° C. for 30 min. […] The tube was incubated at 4° C. for 30 min. 1 mL of PBS was added into the EP tube, and centrifugation was conducted 4° C. at a rate of 3,500 rpm for 5 min. The supernatant was removed. Then, the EP tube was washed once with the PBS, and the supernatant was removed after centrifugation. The cells were resuspended with PBS in a volume of 100 l/tube. An Alexa-647 labeled goat anti-human secondary antibody (purchased from Jackson lab) was added into the tube in a volume of 1 l/tube, and the tube was incubated in the dark at 4° C. for 30 min. The tube was washed twice with PBS, and the supernatant was removed after centrifugation. The cells were resuspended with the PBS in a volume of 200 l/tube, and detection was conducted by a flow cytometer. The results are as shown in FIG. 17A and FIG. 17B, FIG. 18A and FIG. 18B, FIG. 19A and FIG. 19B, and FIG. 20A and FIG. 20B."}, "[2]": {"target": "T1, MICA on human tumor cells (A-375, A549, …)", "experiment": "flow cytometry on A-375 cells, Alexa-647 goat anti-human secondary, average fluorescence intensity", "method": "(1) Tumor cells were diluted to a density of 2×10⁶/mL with PBS and then added into a 1.5 ml EP tube in a volume of 100 l/tube. 10 l/tube of goat serum was added into the EP tube; and blocking was conducted at 4° C. for 30 min. Antibody h5A1 (having a heavy chain sequence as set forth in SEQ ID NO: 11 and a light chain sequence as set forth in SEQ ID NO: 12), antibody h5A1002 (having a heavy chain sequence as set forth in SEQ ID NO: 13 and a light chain sequence as set forth in SEQ ID NO: 14), and control IgG1 (purchased from Biointron) were gradient-diluted (at a highest working concentration of 50 μg/ml, 10 gradients, diluted by 3 times for each gradient) and added. The tube was incubated at 4° C. for 30 min. 1 mL of PBS was added into the EP tube, and centrifugation was conducted 4° C. at a rate of 3,500 rpm for 5 min. The supernatant was removed. The EP tube was washed once with the PBS. The supernatant was removed after centrifugation. The cells were resuspended with PBS in a volume of 100 l/tube. An Alexa-647 labeled goat anti-human secondary antibody (purchased from Jackson lab) was added into the tube in a volume of 1 l/tube; and the plate was incubated in the dark at 4° C. for 30 min. The tube was washed twice with PBS, and the supernatant was removed after centrifugation. […]"}, "[3]": {"target": "T2, MICA002α3-Fc (human)", "T2 construct": "Produced in the Applicant's laboratory; also called MICA*002-Fc; domain α3 of MICA-002 Fc fusion protein", "T2 sequence (chain, as listed by the source limits assumed)": "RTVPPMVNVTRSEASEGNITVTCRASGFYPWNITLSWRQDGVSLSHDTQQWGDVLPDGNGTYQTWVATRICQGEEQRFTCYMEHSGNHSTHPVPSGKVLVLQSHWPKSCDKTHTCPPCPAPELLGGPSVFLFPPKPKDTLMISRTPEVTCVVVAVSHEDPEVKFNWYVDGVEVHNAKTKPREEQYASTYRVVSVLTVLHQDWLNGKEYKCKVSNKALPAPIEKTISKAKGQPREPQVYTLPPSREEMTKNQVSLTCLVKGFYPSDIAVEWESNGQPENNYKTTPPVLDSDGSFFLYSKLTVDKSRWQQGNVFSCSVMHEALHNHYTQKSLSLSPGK", "experiment": "ELISA on coated MICA*002 α3-Fc (1 µg/ml), HRP anti-human Fab secondary, OD450"}, "[4]": {"target": "T3, MICA005α3-Fc (human)", "T3 construct": "also called MICA*005-Fc; domain α3 of MICA-005 Fc fusion protein", "T3 sequence (chain, as listed by the source limits assumed)": "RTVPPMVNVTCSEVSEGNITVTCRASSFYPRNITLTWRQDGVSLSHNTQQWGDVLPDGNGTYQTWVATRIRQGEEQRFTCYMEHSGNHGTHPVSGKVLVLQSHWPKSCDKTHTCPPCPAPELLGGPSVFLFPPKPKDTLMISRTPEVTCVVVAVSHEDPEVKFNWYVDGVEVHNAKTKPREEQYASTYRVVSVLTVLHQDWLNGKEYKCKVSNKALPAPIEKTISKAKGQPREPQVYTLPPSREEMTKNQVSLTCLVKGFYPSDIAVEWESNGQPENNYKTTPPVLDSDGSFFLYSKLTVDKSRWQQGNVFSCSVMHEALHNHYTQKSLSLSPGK", "experiment": "ELISA on coated MICA*005 α3-Fc (1 µg/ml), HRP anti-human Fab secondary, OD450"}, "[5]": {"target": "T4, MICA protein (SPR analyte) (human, UniProt Q29983 24-308, limits assumed)", "T4 construct": "also called major histocompatibility complex class I chain related polypeptide A", "T4 sequence": "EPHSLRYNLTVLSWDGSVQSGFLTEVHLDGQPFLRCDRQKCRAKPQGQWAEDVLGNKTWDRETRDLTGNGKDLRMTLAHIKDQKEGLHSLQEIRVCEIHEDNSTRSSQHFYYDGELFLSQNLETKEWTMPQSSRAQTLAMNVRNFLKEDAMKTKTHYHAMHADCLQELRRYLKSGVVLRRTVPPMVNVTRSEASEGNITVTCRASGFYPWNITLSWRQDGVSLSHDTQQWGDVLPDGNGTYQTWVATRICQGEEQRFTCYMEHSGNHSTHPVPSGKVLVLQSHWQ", "experiment": "SPR, Biacore 8K, antibody captured on protein A chip, MICA as analyte", "method": "In a Biacore 8K (Cytiva) system, the antibody was diluted to a concentration of 10 µg/mL with running buffer (HBS-EP), and the antibody was conjugated onto a protein A (Cytiva, 29127556) chip at a flow rate of […].\nKinetic and affinity data of binding of the maternal antibody h5A1 and the affinity maturation antibody h5A1002 and MICA were detected."}, "[6]": {"target": "T1, MICA on human tumor cells (A-375, A549, …)", "experiment": "flow cytometry on HCT-15 cells, Alexa-647 goat anti-human secondary, % binding ratio", "method": "as §1"}, "[7]": {"target": "T5, MICB001α3-Fc", "T5 construct": "also called MICB*001-Fc; domain α3 of MICB-001 Fc fusion protein", "T5 sequence (chain, as listed by the source limits assumed)": "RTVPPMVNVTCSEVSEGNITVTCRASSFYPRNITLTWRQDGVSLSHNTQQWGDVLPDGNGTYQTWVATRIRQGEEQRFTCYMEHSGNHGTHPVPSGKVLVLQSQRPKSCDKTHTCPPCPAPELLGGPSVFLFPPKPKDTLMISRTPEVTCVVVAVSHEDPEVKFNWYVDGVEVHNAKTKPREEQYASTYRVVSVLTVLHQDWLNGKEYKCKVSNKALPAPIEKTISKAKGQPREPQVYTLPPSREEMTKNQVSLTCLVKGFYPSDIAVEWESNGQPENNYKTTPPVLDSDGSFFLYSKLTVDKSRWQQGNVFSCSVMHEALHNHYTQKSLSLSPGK", "experiment": "ELISA on coated MICB*001 α3-Fc (1 µg/ml), HRP anti-human Fab secondary, OD450"}, "[8]": {"target": "T6, MICB005α3-Fc", "T6 construct": "also called MICB*005-Fc; domain α3 of MICB-005 Fc fusion protein", "T6 sequence (chain, as listed by the source limits assumed)": "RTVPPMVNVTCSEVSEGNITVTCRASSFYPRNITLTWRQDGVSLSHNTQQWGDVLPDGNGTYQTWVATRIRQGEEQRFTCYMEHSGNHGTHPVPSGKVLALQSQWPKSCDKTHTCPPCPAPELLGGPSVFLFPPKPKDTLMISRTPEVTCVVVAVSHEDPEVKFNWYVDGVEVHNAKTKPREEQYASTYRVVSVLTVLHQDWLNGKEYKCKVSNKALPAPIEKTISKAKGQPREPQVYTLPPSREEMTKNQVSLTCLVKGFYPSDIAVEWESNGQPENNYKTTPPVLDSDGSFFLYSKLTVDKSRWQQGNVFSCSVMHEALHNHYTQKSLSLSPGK", "experiment": "ELISA on coated MICB*005 α3-Fc (1 µg/ml), HRP anti-human Fab secondary, OD450"}}, "data": [{"binder": "B1", "values": [{"measurement": "EC50 (read off the curve)", "setting": "[1]", "value": "~0.3", "unit": "µg/mL"}, {"measurement": "EC50 (read off the curve)", "setting": "[2]", "value": "~2", "unit": "µg/mL"}, {"measurement": "EC50 (read off the curve)", "setting": "[3]", "value": "~0.04", "unit": "µg/mL"}, {"measurement": "EC50 (read off the curve)", "setting": "[4]", "value": "~0.04", "unit": "µg/mL"}, {"measurement": "Kd", "setting": "[5]", "value": 5.4, "unit": "nM"}, {"measurement": "koff", "setting": "[5]", "value": 0.000129, "unit": "s⁻¹"}, {"measurement": "kon", "setting": "[5]", "value": 23800, "unit": "M⁻¹ s⁻¹"}, {"measurement": "EC50 (read off the curve)", "setting": "[6]", "value": "~0.1", "unit": "µg/mL"}, {"measurement": "EC50 (read off the curve)", "setting": "[7]", "value": "~0.03", "unit": "µg/mL"}, {"measurement": "EC50 (read off the curve)", "setting": "[8]", "value": "~0.04", "unit": "µg/mL"}]}]}
